Test results: US20030022275, “HUMAN NK-3 RELATED PROSTATE SPECIFIC GENE-1” (published 2003)

How the values were obtained:
[1] = target: T1, NKX3.1 homeodomain (NKX3.1HD) (Homo sapiens, UniProt Q99801 SEQ:122-188); assay: EMSA; human protein stated to behave identically to murine; details: tags: N-terminal 6xHis (pQE-9, E. coli); label: 32P
Procedure: (§1) The DNA binding experiments were performed as follows. Briefly, increasing amounts of protein were incubated in binding buffer [10 mM Tris-HCl ([…]), 50 mM NaCl, 5% glycerol, 5% sucrose, 0.2 mM EDTA, 7.5 mM MgCl₂, 0.5 mg/mL bovine serum albumin, 0.1% NP-40, 10 mM DTT, 500 μg of poly-didC] with 4×10⁴ cpm of ³²P-labeled, double stranded oligonucleotide for 20 min at room temperature. The sequences of the DNA binding sites were as follows (top strand shown):
(§2) The DNA binding specificity of NKX3.1HD was examined by gel mobility shift analysis using various DNA sites identified for NK-like and Antennapedia-like homeodomains. The DNA sites were as follows: (i) the consensus DNA site for the NKX2.1 homeodomain (TCAAGTG) (Guazzi, S. et al., EMBO J. 9:3631-3639 (1990)) and a mutated version of this site that contains nucleotide substitutions within the CAAG core (TCACGTG); and (ii) the consensus DNA site identified for an Antennapedia-like homeodomain (Msx1) (CTAATTG), a mutated version of this site that contains nucleotide substitutions within the TAAT core (CTACTTG), or one that contains nucleotide substitutions 3′ of the TAAT core (CTAATGG) (Catron, K. M. et al., Mol. Cell. Biol. 13;2354-2365 (1993); Guazzi, S. et al., EMBO J. 9:3631-3639 (1990)). […]

[2] = target: T1, NKX3.1 homeodomain (NKX3.1HD); assay: EMSA; human protein stated to behave identically to murine in DNA binding; details: tags: N-terminal 6xHis (pQE-9, E. coli); label: 32P
Procedure: as §1, §2

| Binder | binding result [1] | binding result [2] |
| --- | --- | --- |
| site 6-19 (mutated TAAT core) (dsDNA) DNA 1: ACACTACTTGGAGGC DNA 2: GCCTCCAAGTAGTGT | no binding | – |
| mutated C site (CACG) (dsDNA) DNA 1: CACTGCCCAGTCACGTGTTCGTGA DNA 2: TCACGAACACGTGACTGGGCAGTG | no binding | – |
| C site (NKX2.1 consensus, CAAG core) (dsDNA) DNA 1: CACTGCCCAGTCAAGTGTTCTTGA DNA 2: TCAAGAACACTTGACTGGGCAGTG | – | binds |
